Data set [1] has as its target T1, human TM4SF1 (transmembrane-4 L six family member-1) (human, UniProt P30408 1-202).
T1 construct: also called hTM4SF1
T1 sequence: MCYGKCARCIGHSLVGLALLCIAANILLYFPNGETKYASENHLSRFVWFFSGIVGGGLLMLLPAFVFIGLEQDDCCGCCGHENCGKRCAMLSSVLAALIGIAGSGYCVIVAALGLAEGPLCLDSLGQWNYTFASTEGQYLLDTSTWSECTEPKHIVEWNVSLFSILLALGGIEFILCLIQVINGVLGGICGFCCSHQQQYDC
In words: flow cytometry (MFI) on HUVEC. Background: Flow cytometry measures light scatter and fluorescence of single cells or particles in a stream.

For data set [2], the target named is T1, human TM4SF1 (transmembrane-4 L six …). Put plainly: flow cytometry on MDA-MB-468 and HLMEC cells.

These results are taken from patent publication US20200270360A1 (ANGIEX, published 2020).

By EC50 is commonly meant the concentration giving half of the maximal effect. A low value points to an effect from little substance.

B1: humanized mutated (hm) AGX-A07 H2L5 V1 (antibody, human IgG1, kappa, V domains shown)
VH: EVQLVQSGAEVKKPGASVKVSCKASGYTFTNYGVKWVRQAPGQGLEWMGWINTYTGNPIYAADFKGRVTMTTDTSTSTAYMELRSLRSDDTAVYYCVRFQYGDYRYFDVWGQGTLVTVSS
VL: EIVLTQSPATLSLSPGERATLSCRANSGISFINWYQQKPGQAPRLLIYGTANLASGIPARFSGSGSGRDFTLTISSLEPEDFAVYYCQQWSSNPLTFGGGTKVEIKR
notes: Full heavy and light chains
For the molecule B1, the midpoint of the response in data set [1], the EC50, lay at 1.58 nM.

B2: humanized mutated (hm) AGX-A07 H2L5 V2 (antibody, human IgG1, kappa, V domains shown)
VH: EVQLVQSGAEVKKPGASVKVSCKASGYTFTNYGVKWVRQAPGQGLEWMGWINTYTGNPIYAADFKGRVTMTTDTSTSTAYMELRSLRSDDTAVYYCVRFQYGDYRYFDVWGQGTLVTVSS
VL: EIVLTQSPATLSLSPGERATLSCRAQSGISFINWYQQKPGQAPRLLIYGTANLASGIPARFSGSGSGRDFTLTISSLEPEDFAVYYCQQWSSNPLTFGGGTKVEIKR
notes: Full heavy and light chains; also called AGX-A07 H2v1L5v2
In data set [1], B2 showed a 50% effective concentration (EC50) of 1.64 nM.

B3: humanized mutated (hm) AGX-A07 H2L5 V3 (antibody, human IgG1, kappa, V domains shown)
VH: EVQLVQSGAEVKKPGASVKVSCKASGYTFTNYGVKWVRQAPGQGLEWMGWINTYTGNPIYAADFKGRVTMTTDTSTSTAYMELRSLRSDDTAVYYCVRFQYGDYRYFDVWGQGTLVTVSS
VL: EIVLTQSPATLSLSPGERATLSCRANSGISFINWYQQKPGQAPRLLIYGTANLASGIPARFSGSGSGRDFTLTISSLEPEDFAVYYCQQYSSNPLTFGGGTKVEIKR
notes: Full heavy and light chains
B3 registered an EC50 in data set [1] of 4.19 nM.

B4: humanized AGX-A07 H2L5 (antibody, human IgG1, kappa, V domains shown)
VH: QVQLVQSGAEVKKPGASVKVSCKASGYTFTNYGVKWVRQAPGQDLEWMGWINTYTGNPIYAADFKGRVTMTTDTSTSTAFMELRSLRSDDTAVYYCVRFQYGDYRYFDVWGQGTLVTVSS
VL: EIILTQSPATLSLSPGERATLSCRANSGISFINWYQQKPGQAPRLLIYGTANLASGIPARFGGSGSGRDFTLTISSLEPEDFAVYYCQQWSSNPLTFGGGTKVEIKR
notes: Full heavy and light chains; also called h AGX-A07 H2L5; hAGX-A07 H2L5
In data set [1], B4 gave a half-maximal effective concentration (EC50) of 1.53 nM.

B5: humanized mutated (hm) AGX-A07 H2L5 V4 (antibody, human IgG1, kappa, V domains shown)
VH: EVQLVQSGAEVKKPGASVKVSCKASGYTFTNYGVKWVRQAPGQGLEWMGWINTYTGNPIYAADFKGRVTMTTDTSTSTAYMELRSLRSDDTAVYYCVRFQYGDYRYFDVWGQGTLVTVSS
VL: EIVLTQSPATLSLSPGERATLSCRAQSGISFINWYQQKPGQAPRLLIYGTANLASGIPARFSGSGSGRDFTLTISSLEPEDFAVYYCQQYSSNPLTFGGGTKVEIKR
notes: Full heavy and light chains; also called hm AGX-A07 V4
Consider B5, for which, in data set [1], the EC50 was found to be 46.1 nM.

B6: anti-TM4SF1 antibody AGX-A01 (antibody, V domains shown)
VH: EVILVESGGGLVKPGGSLKLSCAASGFTFSSFAMSWVRQTPEKRLEWVATISSGSIYIYYTDGVKGRFTISRDNAKNTVHLQMSSLRSEDTAMYYCARRGIYYGYDGYAMDYWGQGTSVTVS
VL: AVVMTQTPLSLPVSLGDQASISCRSSQSLVHSNGNTYLHWYMQKPGQSPKVLIYKVSNRFSGVPDRFSGSGSGTDFTLKISRVEADDLGIYFCSQSTHIPLAFGAGTKLELK
notes: also called 8G4; AGX-01
Consider B6, for which, in data set [2], the “concentration that saturates cell surface TM4SF1 binding” value is 10000 ng/mL.

B7: humanized AGX-A01 (antibody, human IgG1, kappa, V domains shown)
VH: EVQLVESGGGLVKPGGSLRLSCAASGFTFSSFAMSWVRQAPGKGLEWVSTISSGSIYIYYTDGVKGRFTISRDNAKNSLYLQMNSLRAEDTAVYYCARRGIYYGYDGYAMDYWGQGTLVTVSS
VL: AIVLTQSPGTLSLSPGERATLSCRSSQSLVHSNGNTYLHWYMQKPGQAPRVLIYKVSNRFSGIPDRFSGSGSGTDFTLTISRLEPDDFAIYYCSQSTHIPLAFGQGTKLEIKR
notes: also called h AGX-A01 H1L10; h AGX-A01
B7 gave a 50% effective concentration (EC50) in data set [1] of 3.03 nM.
